Reference: publication PMC4298360

What was measured:
[1] = target: murine IL-2Rβγ heterodimeric Fc fusion (knobs-into-holes), biotinylated (murine) (UniProt P16297); assay: SPR; Biacore T200; biotinylated IL2Rβγ-Fc heterodimer immobilised on streptavidin chips; 2-fold dilution series (1.2–300 nM) of IgG-IL-2 injected 2 min, dissociation up to 10 min; global fit, 1:1 interaction model
[2] = target: human IL-2Rβγ heterodimeric Fc fusion (knobs-into-holes), biotinylated (human) (UniProt P14784); assay: as above
[3] = target: cynomolgus IL-2Rβγ heterodimeric Fc fusion (knobs-into-holes), biotinylated (cynomolgus) (UniProt Q38J85); assay: as above
[4] = target: human IL-2Rβγ heterodimeric Fc fusion (knobs-into-holes), biotinylated (human) (UniProt P14784)
[5] = target: cynomolgus IL-2Rβγ heterodimeric Fc fusion (knobs-into-holes), biotinylated (cynomolgus) (UniProt Q38J85)
[6] = target: murine IL-2Rβγ heterodimeric Fc fusion (knobs-into-holes), biotinylated (murine) (UniProt P16297); assay: SPR; Biacore T200; biotinylated IL2Rβγ-Fc heterodimer immobilised on streptavidin chips; 2-fold dilution series (1.2–300 nM) of IgG-(IL-2)2 injected 2 min, dissociation up to 10 min; global fit, 1:1 interaction model despite bivalent binding: apparent KD
[7] = target: human IL-2Rβγ heterodimeric Fc fusion (knobs-into-holes), biotinylated (human) (UniProt P14784); assay: as above
[8] = target: cynomolgus IL-2Rβγ heterodimeric Fc fusion (knobs-into-holes), biotinylated (cynomolgus) (UniProt Q38J85); assay: as above

Chain of IgG-(IL-2)2 (bivalent fusion of two wild-type human IL-2 to a non-targeted, effector-silent human IgG1) (P60568 21-153 limits assumed): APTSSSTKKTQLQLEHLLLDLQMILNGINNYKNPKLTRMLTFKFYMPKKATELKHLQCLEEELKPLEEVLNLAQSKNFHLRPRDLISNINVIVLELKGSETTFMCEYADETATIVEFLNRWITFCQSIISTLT
Chain of IgG-IL-2 (monovalent fusion of wild-type human IL-2 to a non-targeted, effector-silent human IgG1) (P60568 21-153 limits assumed): as above
Chain of human IL-2Rβγ heterodimeric Fc fusion (knobs-into-holes), biotinylated (human) (P14784 27-240, chain 1 of 2): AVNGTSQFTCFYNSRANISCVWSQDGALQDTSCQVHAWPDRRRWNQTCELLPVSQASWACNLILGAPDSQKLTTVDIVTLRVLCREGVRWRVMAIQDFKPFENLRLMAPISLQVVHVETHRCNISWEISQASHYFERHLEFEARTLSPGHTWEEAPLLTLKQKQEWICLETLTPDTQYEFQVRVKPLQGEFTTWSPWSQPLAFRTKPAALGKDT
Chain of human IL-2Rβγ heterodimeric Fc fusion (knobs-into-holes), biotinylated (human) (P31785 23-262, chain 2 of 2, further chain): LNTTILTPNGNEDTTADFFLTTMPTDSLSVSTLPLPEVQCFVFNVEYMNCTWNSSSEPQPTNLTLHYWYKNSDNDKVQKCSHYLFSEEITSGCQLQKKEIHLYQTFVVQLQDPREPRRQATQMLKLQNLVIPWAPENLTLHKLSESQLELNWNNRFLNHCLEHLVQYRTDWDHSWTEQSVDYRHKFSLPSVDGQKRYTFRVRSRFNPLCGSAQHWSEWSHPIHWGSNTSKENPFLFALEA
Chain of murine IL-2Rβγ heterodimeric Fc fusion (knobs-into-holes), biotinylated (murine) (P16297 27-240, chain 1 of 2): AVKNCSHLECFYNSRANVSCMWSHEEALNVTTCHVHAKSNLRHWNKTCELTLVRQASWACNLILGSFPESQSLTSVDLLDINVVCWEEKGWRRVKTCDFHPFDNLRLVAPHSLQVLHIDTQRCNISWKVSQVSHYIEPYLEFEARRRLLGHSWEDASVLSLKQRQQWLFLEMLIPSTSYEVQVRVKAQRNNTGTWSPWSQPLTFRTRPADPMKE
Chain of murine IL-2Rβγ heterodimeric Fc fusion (knobs-into-holes), biotinylated (murine) (P34902 23-263, chain 2 of 2, further chain): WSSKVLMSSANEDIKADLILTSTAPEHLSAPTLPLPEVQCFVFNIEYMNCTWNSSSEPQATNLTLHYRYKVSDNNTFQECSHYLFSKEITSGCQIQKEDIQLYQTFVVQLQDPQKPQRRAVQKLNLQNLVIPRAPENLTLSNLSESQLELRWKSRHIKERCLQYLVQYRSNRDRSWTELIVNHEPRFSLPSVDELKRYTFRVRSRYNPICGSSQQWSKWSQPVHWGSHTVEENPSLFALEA

Substance | Kd [1] [nM] | Kd [2] [nM] | Kd [3] [nM] | ED50 of pSTAT5a induction in human Tregs in whole blood (30 min, 37 °C); the receptor meant is the IL-2 receptor on the cells [4] [pM] | ED50 of pSTAT5a induction in cynomolgus Tregs in whole blood (30 min, 37 °C); the receptor meant is the IL-2 receptor on the cells [5] [pM] | Kd [6] [nM] | Kd [7] [nM] | Kd [8] [nM]
IgG-IL-2 (monovalent fusion of wild-type human IL-2 to a non-targeted, effector-silent human IgG1) (from UniProt P60568 21-153) | 0.75 | 0.04 | 0.18 |  |  |  |  | 
IgG-(IL-2)2 (bivalent fusion of two wild-type human IL-2 to a non-targeted, effector-silent human IgG1) (from UniProt P60568 21-153) |  |  |  | 0.3 | 0.1 | 0.04 | 0.003 | 0.04
